Consider 139 substances from the supplement of paper PMC12042874.

± gives the uncertainty stated by the source.

The data set in a line: amyloid nucleation score (Sup35N fusion, yeast selection) (log enrichment); library NNK2; higher = more nucleation; inactive = no reads after selection. The procedure, abridged: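 Random libraries were run with three technical output replicates. In each, psi-negative yeast expressing Sup35N fused to peptides of 20 random codons were induced 24 hours with 100 μM copper sulfate and grown 7 days at 30°C on medium lacking adenine and uracil, and input and output plasmid inserts were Illumina-sequenced. The nucleation score is the DiMSum log enrichment of output over input reads, centred on the mode score of non-aggregating sequences, and sequences under 100 input reads were excluded.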
Turning to THVRVEVLS, the amyloid nucleation score result was “inactive”.

Substance THYNVGLINNIINNLILVYI gave an amyloid nucleation score of 4.52 ± 0.12.

In turn, TICDTLGYLTRSWYLSYESS displayed an amyloid nucleation score of -0.545 ± 0.32.

TICWHGFNR returned an amyloid nucleation score of 0.119 ± 0.76.

Turning to TIFMAYTWLNYTVAFLSNVR, the amyloid nucleation score is -1.01 ± 0.61.

For the substance TIFSHVYLALLR, the amyloid nucleation score came out at 0.382 ± 0.8.

The substance TIGANPRVLDG had an amyloid nucleation score of 0.316 ± 0.39.

TIIIREQSKPFPCLE returned an amyloid nucleation score of 0.931 ± 0.74.

In the case of TIKTALMYIMRYSFRSYRDF, the amyloid nucleation score is -1.02 ± 0.61.

As for TILCFCAC, the amyloid nucleation score was 4.86 ± 0.056.

For TIVWLGRPLYTGFKNTKRGH, the amyloid nucleation score result was “inactive”.

Regarding TIWRCFLT, the amyloid nucleation score came out at 0.685 ± 0.33.

TKAYNTFLRPETVRLSESTK gave an amyloid nucleation score of 0.9 ± 0.18.

Turning to TKFMIYRDYSLVKSHH, the amyloid nucleation score result is “inactive”.

Take TKQPSFTCPGLSSRILRRLK: the amyloid nucleation score came out at 3.04 ± 0.18.

On to TKTTWSDPGG, for which the amyloid nucleation score worked out at 0.922 ± 0.43.

TKVMQGVNSMARGV yielded an amyloid nucleation score of 1.08 ± 0.39.

The substance TKYDLHPMIVSFECDRHLMW yielded an amyloid nucleation score of 0.411 ± 0.49.

On to TLAFCFFLTKLSVQCFLYPP, for which the amyloid nucleation score worked out at 0.241 ± 0.8.

Take TLCMSRGNSYCCMQSFSEKD: the amyloid nucleation score turned out to be 5.05 ± 0.063.

In turn, TLCVAIMYMHLGYAL registered an amyloid nucleation score of 0.178 ± 0.5.

Turning to TLCVGVFAHTAMRCRECHAA, the amyloid nucleation score worked out at 5.479 ± 0.043.

In turn, TLFLSNFRFRCRFPDHALIS gave an amyloid nucleation score of -1.3 ± 0.48.

As for TLFRSELFAV, the amyloid nucleation score was 0.495 ± 0.56.

The substance TLKLALEFLNEIYEEPVKCR came in with an amyloid nucleation score of -1.36 ± 0.48.

Take TLKRSRPVLYNLYNGFVVVA: the amyloid nucleation score worked out at 2.25 ± 0.21.

Substance TLLVKSMGGSLET returned an amyloid nucleation score of 4.11 ± 0.044.

For TLLYKFTDCTVMMAIRVARR, the amyloid nucleation score was 1.45 ± 0.52.

With TLMYSQSAIDWTMSSPGRCR, the amyloid nucleation score was 1.49 ± 0.36.

For TLQMGQSMPSFFGLRWAVYR, the amyloid nucleation score is 0.503 ± 0.43.

Turning to TLRVLCTVCYSMDRVAA, the amyloid nucleation score result is “inactive”.

TLSCKFIKGWLIQQYSHNKD gave an amyloid nucleation score of -0.187 ± 0.76.

Regarding TLSCSYVCAPTVYVQSSRPT, the amyloid nucleation score came to 1.27 ± 0.18.

As to TLSVTEGYSNLTSMWYGCKR, the amyloid nucleation score came to 3.23 ± 0.15.

For TLTILRVTCPLFSDGIMFKR, the amyloid nucleation score was 0.609 ± 0.47.

For the substance TLTNHWLRSLCITSKGTLSC, the amyloid nucleation score entry is “inactive”.

The substance TLTRGSISSIVDASWNMEKT had an amyloid nucleation score of -0.061 ± 0.46.

As for TMELFLRRFYIWIKDIDNGR, the amyloid nucleation score entry was “inactive”.

In turn, TMGYEFMQILLDLRNLSCSY had an amyloid nucleation score of 3.64 ± 0.097.

For the substance TMHYYLWDSN, the amyloid nucleation score amounted to 4.88 ± 0.1.

In turn, TMILCRKYNASWMIVARNDL came in with an amyloid nucleation score of -0.311 ± 1.1.

The substance TMLETLRARADLMCQVWYSV gave an amyloid nucleation score of 0.964 ± 0.4.

TMWRVIGSVYFVKFFSATLG: the amyloid nucleation score is -0.07 ± 0.43.

TNCTDEGIILCHP displayed an amyloid nucleation score of -0.19 ± 1.1.

Take TNDASYSIDLWW: the amyloid nucleation score was -0.304 ± 0.18.

In turn, TNDHQFCESNMRVMSEGIGP registered an amyloid nucleation score of -0.284 ± 1.1.

TNHFN: the amyloid nucleation score is -1.08 ± 0.61.

TNKKVVRYPSPLPERSYGMR registered an amyloid nucleation score of 0.012 ± 0.74.

Take TNPASAGTYSRSYEFCSLRL: the amyloid nucleation score stood at 1.59 ± 0.18.

TNPSSKPAWVTSR came in with an amyloid nucleation score of 0.007 ± 0.79.

Substance TNRLMVEVALIFRSINCVNR came in with an amyloid nucleation score of -0.561 ± 0.38.

Take TPATVEYGDNCVYDY: the amyloid nucleation score was -0.987 ± 0.44.

As to TPENFHLR, the amyloid nucleation score result was “inactive”.

On to TPLDIICEIMNFIYNTVFRL, for which the amyloid nucleation score is -0.501 ± 1.1.

Substance TPLTVYDFPYNEGCCAV gave an amyloid nucleation score of 1.7 ± 0.34.

In the case of TPNQGNPSGYFFDNSFMKPF, the amyloid nucleation score result was “inactive”.

As for TPNYLSHTVVCVCINNVLIF, the amyloid nucleation score amounted to 4.74 ± 0.058.

As for TPRIS, the amyloid nucleation score is 0.647 ± 0.8.

TPTGSVLAYRVTISTKVVSL showed an amyloid nucleation score of 1.09 ± 0.38.

TPTYLRYIVVIYL returned an amyloid nucleation score of 2.41 ± 0.11.

On to TPVWVGVSLVPPIAPTTWIN, for which the amyloid nucleation score was found to be 0.288 ± 0.28.

Substance TQLASIQPSVPCYIVYTVGL registered an amyloid nucleation score of 3.01 ± 0.085.

The substance TQLTDASSELLPPGSRLQCS displayed an amyloid nucleation score of 1.03 ± 0.36.

TQSIALINTRVELTVDEFSF registered an amyloid nucleation score of -0.111 ± 0.65.

TQVLYSSCFVVVLSYLSRQD yielded an amyloid nucleation score of 4.51 ± 0.086.

With TRASYFCQSTANYSVSRSNM, the amyloid nucleation score worked out at 1.8 ± 0.3.

As to TRFFTSLK, the amyloid nucleation score was -0.402 ± 0.61.

TRFLPDAY displayed an amyloid nucleation score of -0.903 ± 0.32.

In turn, TRFRRDESRTSEDLRPRNRR came in with an amyloid nucleation score of 1.26 ± 0.23.

On to TRMMCKRFRIML, for which the amyloid nucleation score turned out to be 0.544 ± 0.49.

The substance TRSSNNPPGMVDT came in with an amyloid nucleation score of -0.959 ± 0.38.

As to TRWSHK, the amyloid nucleation score entry is “inactive”.

Turning to TSCSTTAALEVNIRMTDVGV, the amyloid nucleation score is 1.59 ± 0.14.

Substance TSESSV gave an amyloid nucleation score of -0.36 ± 0.64.

For TSFNQELEFFLCGGDVDCNR, the amyloid nucleation score is -1.17 ± 1.1.

TSGQHD returned an amyloid nucleation score of -0.133 ± 0.61.

As for TSISYLRVYTRSFMRSLSGL, the amyloid nucleation score result is “inactive”.

In turn, TSLTQDLEMVLSFNFCMGLA came in with an amyloid nucleation score of -0.158 ± 0.44.

Substance TSLYRVSKM gave an amyloid nucleation score of -0.945 ± 0.76.

On to TSMSYLLRFVCGFRCTYSLC, for which the amyloid nucleation score came to 0.854 ± 0.52.

Regarding TSMVNSFYKTRGTIK, the amyloid nucleation score result was “inactive”.

TSSMTNERDNLILV yielded an amyloid nucleation score of -0.187 ± 0.42.

In the case of TSSYTWGVEPDASRTILVDT, the amyloid nucleation score is 0.4 ± 0.32.

Consider TSTLNRDDG, for which the amyloid nucleation score was found to be 0.367 ± 0.34.

As for TSYACRVIAMRVVCPCRQLR, the amyloid nucleation score result was “inactive”.

For TTAWSVEINGTMRNDDMSAS, the amyloid nucleation score was determined as 2.2 ± 0.091.

TTFILNMMLYNSCTYVYMSL gave an amyloid nucleation score of 8.549 ± 0.073.

As for TTGRWVVLRG, the amyloid nucleation score is 0.342 ± 0.39.

Consider TTLRPLYSTWGSQMVFPGLC, for which the amyloid nucleation score came out at 0.409 ± 0.8.

Substance TTMSTGARGLSRCLSVVFRR displayed an amyloid nucleation score of 3.08 ± 0.12.

TTMYARFIFIVRDSEGMYCS gave an amyloid nucleation score of 7.089 ± 0.064.

Turning to TTQDHFFSL, the amyloid nucleation score entry was “inactive”.

Regarding TTRSNEKIVFHGWTSVINRH, the amyloid nucleation score is -0.696 ± 0.76.

The substance TTTQKGCGVYVAREVSWGLG displayed an amyloid nucleation score of 2.56 ± 0.093.

In turn, TTTWGENLFASNYLLSKTAG displayed an amyloid nucleation score of -0.088 ± 1.1.

Consider TTVKYG, for which the amyloid nucleation score came out at 0.553 ± 0.22.

With TTVSWENGSRVINIVFILMF, the amyloid nucleation score turned out to be 5.045 ± 0.04.

Turning to TTVSYISERFTYLGSL, the amyloid nucleation score was determined as 3.84 ± 0.12.

For the substance TVAWTSRLFSLAGLLHFDR, the amyloid nucleation score worked out at 4.82 ± 0.062.

TVFDRNMDTGIMCIVMSWDN gave an amyloid nucleation score of -0.318 ± 0.48.

TVFFIVPLCSLLDKVNSLGA gave an amyloid nucleation score of 3.34 ± 0.086.

The substance TVFSIMLLSRM came in with an amyloid nucleation score of -0.002 ± 1.

On to TVFSYSWQFYGMHSISDYMI, for which the amyloid nucleation score entry was “inactive”.

TVIGFRDRDSWSMEMIEDHC registered an amyloid nucleation score of -0.272 ± 0.43.

In turn, TVKCLYMGNGAWKTASSVCG gave an amyloid nucleation score of 0.482 ± 0.38.

The substance TVLGTCPVNKVVDNSREAGS gave an amyloid nucleation score of 1.36 ± 0.49.

TVLILPPHTRSDINFMVHYT: the amyloid nucleation score turned out to be 4.43 ± 0.063.

In turn, TVPRFEKHFRAVVNLLGRND gave an amyloid nucleation score of 0.277 ± 0.46.

TVSMNMRCCVECHYIKERYL: the amyloid nucleation score was found to be 4.16 ± 0.051.

As for TVSNR, the amyloid nucleation score is -1.27 ± 0.37.

Turning to TVSRLYEYWLLRMCIY, the amyloid nucleation score was -0.413 ± 1.

The substance TVVSVGVVRVHATLRVKESG showed an amyloid nucleation score of 5.661 ± 0.056.

With TVWGYSSDLKLLEFISIGTQ, the amyloid nucleation score came out at 2.71 ± 0.12.

On to TWDSRYGVACLV, for which the amyloid nucleation score is -0.325 ± 0.33.

As to TWFCVGKVASSMWVYQGVNF, the amyloid nucleation score was found to be 0.662 ± 0.52.

For TWFRSVMYPDLSHFYMF, the amyloid nucleation score result is “inactive”.

In turn, TWNSANFFIKLRQSVFYLSR registered an amyloid nucleation score of -1.46 ± 1.1.

TWSEWSTCRMGATRSH had an amyloid nucleation score of 0.301 ± 0.27.

TWTRLALFMLIPSG displayed an amyloid nucleation score of 0.464 ± 0.35.

Turning to TWVNYIIRKVRLVTIRLYVY, the amyloid nucleation score was -0.011 ± 0.65.

In turn, TYALVTRLFCFLVSEHWVTL returned an amyloid nucleation score of -0.047 ± 0.26.

Regarding TYCFLGFQNIPSMLNPMNFG, the amyloid nucleation score turned out to be 2.98 ± 0.046.

As for TYDYMKRDIMFTWLKRERKA, the amyloid nucleation score amounted to 1.04 ± 0.33.

In turn, TYFLGPLVSNSLRYY showed an amyloid nucleation score of 4.027 ± 0.04.

Regarding TYGLWRFGTRGKDEFKSPNR, the amyloid nucleation score turned out to be 6.16 ± 0.058.

TYGWSLFERKLNPRGCWFPN displayed an amyloid nucleation score of -0.082 ± 0.63.

The substance TYIPGLVRTSLCGVA gave an amyloid nucleation score of -0.245 ± 0.35.

Turning to TYMWTSLEST, the amyloid nucleation score entry is “inactive”.

Substance TYSLICQSTTKRFWVWKATL gave an amyloid nucleation score of -0.619 ± 1.

With TYSLKFGSVVGRNYNLGY, the amyloid nucleation score worked out at 2.08 ± 0.1.

On to TYSTLFDFRMI, for which the amyloid nucleation score worked out at 0.099 ± 0.31.

In turn, TYTYSSCRIARRS returned an amyloid nucleation score of -0.559 ± 0.26.

With TYYVYEVGVS, the amyloid nucleation score was -0.203 ± 0.41.

The substance VACIFCLSSPHPC registered an amyloid nucleation score of 6.48 ± 0.084.

For VALHWNWDLFLYVRYFFDHT, the amyloid nucleation score result is “inactive”.

With VAMSCGRSYLKCLMACGLHM, the amyloid nucleation score was -0.053 ± 1.

VANRIMLGSLGMGFVVGSSM showed an amyloid nucleation score of -0.033 ± 0.43.

In turn, VARVY displayed an amyloid nucleation score of -0.625 ± 0.36.

As for VASGDSVLPKDIVFFSSIQG, the amyloid nucleation score is -0.653 ± 0.29.
